The values below come from the DeepSol protein solubility set.

This data set is described as follows: soluble on expression in E. coli; label from the status in PepcDB or PDB records.
On to “GMKTNEVLETIKARRSVRAYDRKQIPADDLNAILEAGAYAPSGMHYETWHFTAVCNTVKLEELNERIKGAFAKSDDKHLRERGHSETYCCYYHAPTLVIVSNEPKQWWAGMDCACAIENMFLAATSLGIASCWINQLGTTCDDPEVRAYLTSLGVPENHKVYGCVALGYKAEGALLKEKTVKAGTITIVE”, for which the “soluble on expression in E. coli” value was “soluble”.

Consider “MEHRDIVIVGGGMVGSALGAALSGKGLSVSVLEREAPAPFAPEQAPDLRVSAISPASAAFLQTIGAWGQALAMRAAPYRRMQVWERDEAAGTLFDAAEAGVPELGHIVENRVVQLAATEALLAKGDIDYRCPAVVSDIVYRPQASQLTLSDGSRLQARLLIAADGARSQVRDAAGIGVTGWDYPMHALVLSCRIDGGQQDITWQRFTPDGPQAFLPLSGDAASLVWYHRPEEVKRLLTLGDDELIAAVSQAFPRKLPGIRELAARGSFGLTRRHAQCYVKDGVALAGDAAHTIHPLAGQGVNLGFQDAAMLARTILDAHAKGEDWASGKTLVRYQRARKPANLAMQAGMDAFCYGFANDIGPLRLLRGLGLRLADKAGPLKREAIRYALGLRALEHHHHHH”, for which the “soluble on expression in E. coli” value was “not soluble”. The entry for “MAQMYFYYSAMNAGKSTTLLQSSFNYQERGMTPVIFTAALDDRYGVGKVSSRIGLQSDAHLFRPDTNLYQEIAALHEVEKRHCILIDECQFLSKEQVYQLTEVVDKLHIPVLCYGLRTDFLGELFEGSKYLLSWADKLVELKTICHCGRKANMVIRTDEHGVAIKEGDQVAIGGNDRYVSVCRQHYKEALGKLEHHHHHH” is “soluble”. Turning to “MPLEASELKPTAGPLEASELKPTAGPLEASELKPTAGPLEASELKPTAGPLEASELKPTAGPLEASELKPTAGPLEASELKPTAGMFKNAKEFVQYANKLKTLREKKLNGVSIYVCVGTGCTAKGALKVYSAFEEELKKRNLLGQVTLEKIDDDKVTLNRTGCCGRCSSGPLVKIMPYRFFYSNVAPEDVPEIVDRTVLKGEPIERLFLTDPLTGEKVPRIEDTTLFKNQDFYIMEAIGESECDSIEDYIARSGYESLVKALTSMTPEEIIETVKASGLRGRGGGGFPTGLKWEFTRKAQGDIKFVVCNGDEGDPGAFMNRTLLERDPHLVLEGMIIAGYAVGAQKGYAYIRAEYPFAVKMFKKAIEDARKLGLLGENILGTGFSFDLEVKEGAGAFVCGEETALLASIEGKRGMPRPKPPFPAQSGLWGKPTLINNVETYANIPRILRDGVENYRKRGTENSPGTKMFSVAGPLKATGIIEVEFGTTLRDIIYNICGGFVEGEEFKAVQIGGPSGACLSEDFIDMPLDYDTLKKADAMVGSGGIVVITKKTCMVEVARFFLDFTKRESCGKCVPCREGTMQAYNILEKFTHGKATYEDLKTLEHLSKTIKTASLCGLGKTAPNPILSTLKLFREEYIAHIEGECPSGMCTAFKKYVINPDICKGCGLCARSCPQNAITGERGKPYTIDQEKCVKCGLCASKCPFKAIELVAAALEHHHHHH”, the “soluble on expression in E. coli” value is on record as “not soluble”.

In the case of “MSKPEFIARQGRKPTGWLGHIVARVMARETRPENDRALSFLDLADGDSLIDIGCGHGETLFQADRIVRLSGSVGVDFSEVMLKRARARNRDAVWDTRMAFHCADTAALPFPDKRFGKALSVHTIYFWPNPAAHLAEAFRVLRRGGRFLFCYRSTADRRAVEEFPDTVYRFPSVQEVEEKLKLVGFLGPETTTEDIKGLEHHHHHH”, the “soluble on expression in E. coli” value is “not soluble”. For “MVPSFPFQRLPNKPFQNVLKSMSVGNLLSYSMCSEASKSHVTNLKVKINSFEINVTENVHLFVKSEHGPTFNFRTVTSANGNISDDVTPANENEKHRWYKKGFELRNWIEHFLSVLNHSKIDKLNFISQQGERSKNDYLRDSLEGFKVDCFTVQQCSESYQRSIFRNFSPINTFIICATGAESTKAISSALPHNLKDFGYVSRGATWNFSLDNLLLSNSRNLVVIEARFSFPDINMFLKHWLNGSNRRLTNAYFIYTTPLVSEDISKGLPFSIPSEAEISKLPSDLMEHRETMFQLKRKFDSTATIVLKQNNGKHVFNMFVEHF”, the “soluble on expression in E. coli” value is recorded as “not soluble”. “MGHHHHHHGGHMSLSTKAKQQSSQQMTRGFEPYQETKGEEYMSERMRAHFTAILNKWKQELMEEVDRTVHHMQDEAANFPDPADRASQEEEFSLELRARDRERKLIKKIDETLQLIEDEEYGWCDSCGVEIGIRRLEARPTATLCIDCKTLAEIREKQLGSEGGS”: the “soluble on expression in E. coli” value is “soluble”. Consider “MVVRSLLRVSRLTSASCRHASLAVSSTPKPYIPSVTGVQKSMPFDNLLEQYSRVHWDDSVTYDDPNVQKLFKSLMSGSRAALASAITLVESRHPTKRAQGNMLLKMVLDEEREKYKKFGRDSMIFRVGISGSPGVGKSSFIEALGAELTENRGKKVAVLTIDPTSAMTGGSVLGDLTRMQELSRNPKAYIRQSPTSGSLGGVTRGIHEAVILCEGAGYDIVIIETVGVGQSETSVSDMCDMMCLLLSPAHGDELQGVKRGIMEMSDLLVVTKDDGDLKAKAKMTQAEYISALKFMRPRLDVWRPKVMRSSIMDKESVSEVCSSLYEFWDTIGESGDLERRRQDQMKKWMWNHVKDEIMSVFQKHPKIAHLAPKLENEIRSGKITPGLAAETMIRTFFGV”, for which the “soluble on expression in E. coli” value is listed as “not soluble”. For the sequence “MAHHHHHHSLKQKNAYNRLTNHYDDVLTGRKWWSWLYMHCLWKTDDNIIAGSVLDMIPGNFEGRILDVPVGTAIFTYDKYRRMPQAEIVGLDYSQEMLDIAAMRFSAEQITNVSLRQGDVGSLPFPDAAFDLVLSMNGFHVFPDKDRAFAETFRVLRGGGLFCGCFYVKGERKPADWFVRKFLDKKGLFRPPHYTREEAIEKLRSLYGDNVEIQDARSLLVFKCTKPREG”, the “soluble on expression in E. coli” value is given as “soluble”. Then “MGSDKIHHHHHHMSTEPLASRMRPKNIDEIISQQHLVGPKGIIRRMVDTKKLTSMIFYGPPGIGKTSIAKAISGSTQYKFRQLNAVTNTKKDMQLVVEEAKMSGQVILLLDEIHRLDKAKQDFLLPHLENGKIVLIGATTSNPYHAINPAIRSRAQIFELYPLNDEDVRQALTRAIEDDENGLKTYQPKIDEDAMTYFSTQSQGDVRSALNALELAVLSADNDKDGYRHVTLQDAKDCLQKGAFVSDKDGDMHYDVMSAFQKSIRGSDVNAALHYLARLIEAGDLPTIVRRLLVISYEDIGLASPNAGQRTLAAIESAERLGLPEARIPLSQAVIELCLSPKSNSAMSAIDSALSDIRNGHVGQIPNHLKDGHYQGAKDLGRSIGYKYPHQYVNGYVSQQYLPDKLKNKIYYEPKTTSKSEQQLKEIYNNLLKQRP”, with “not soluble”; and “GMPEIHQSIAQHYHERTKYDPETIASKSQRLDWAKQPVPFKEYKIGSAIDLKPYLQETPEVFVNDTNGQWWQRLSRLLFRSYGLTARMPSMGNTVYLRAAPSAGGLYPAEVYVVSRGTPLLSPGLYNYQCRTHSLIHYWESDVWQSLQEACFWHPALESTQLAIIVTAVFYRSAWRYEDRAYRRICLDTGHLLGNIELSAAITDYRPHLIGGFIDEAVNDLLYIDPLQEGAIAVLPLADLLDIQQNISPGCTALPSATETNYPQVPDGELLKYFHHHTQISASITGKLNLPTVIQEKSLEDKYNFPFCLKISTVSAPIYWGENLSDLEITMHKRRSTRAYNGEELTFDELKALLDFTYQPQNYIDQSLDNSPDYFDLNLIETFIAVCGVQGLEAGCYYYAPKAQELRQIRFKNFRRELHFLCLGQELGRDAAAVIFHTSDLKSAIAQYGDRVYRYLHMDAGHLGQRLNLAAIQLNLGVSGIGGFFDDQVNEVLGIPNDEAVIYITTLGRPR”, with “soluble”; and “ATADPGVRAMDYQQATDVVIARGLSQRGVPFSWAGGGINGPTRGTGTGANTVGFDASGLMQYAYAGAGIKLPRSSGAMYRVGQKILPQQARKGDLIFYGPEGTQSVAMYLGNNQMLEVGDVVQVSPVRTAGMAPYMVRVLGT”, with “soluble”. Consider “MERTVKLRVKVDYSTYSALKEVEKEYREVLEDAINYGLSNKTTSFTRIKAGVYKTEREKHKDLPSHYIYTACEDASERLDSFEKLKKRGRSYTEKPSVRRVTIHLDDHLWKFNLDTISISTKRSRILISPTFPKIFWRYYNTEWRIASEARFRLMKGNVVEFYVIFKRDEPKPYEPKAFIPVDLNENSVSVLINSKPLLLETNTKKITLGYEYRRKAITTGKSTKDREVRRKLKRLRERNKKVDIRRKLAKLIVKEAFESRSAIVLEDLPRRTPEHMIKDVKDKQLRLRIYRSAFSSMKNAIIEKAREFGVPVVLVNPSYTSTVCPIHGANIVYQLDGGDAPRVGVCEKGKEKWHRDVVALYNLARRAGDVSPVPLGSKESHDPPTLSGWLRAKSLHSIMNEHKMIEMKVLEHHHHHH”, for which the “soluble on expression in E. coli” value is on record as “soluble”.

With “MSLSVPFEYTPIAQSVLDECEHLDTASLSDALDSLGIDGGLPGIASQVPGTRCVGIAFTVQYQPVDASEGFRGAANYIDQVPSGSVIVSSNSGRHDCTVWGDIMTHFALANGIKGTVIDGVARDIDTVINCNYPLFSRGRFMQSAKNRTQLKAVQVPLVIDGITIQPGDLMVCDGSGCVVVPQQLAAEVVLRARAVEQTERRIIEAISSGSTLEQARMTYRYDQPWLSEAEHGGTQEGHHHHHH”, the “soluble on expression in E. coli” value is reported as “soluble”. As for “MSLNLQSKKRAWIVGKEHYDLGNDLFSRMLDPYMQYSCAYWKDADTLEAAQQAKLKLICEKLQLQPGMRVLDIGCGWGGLSQYMATHYGVSVVGVTISAEQQKMAQTRCEGLDVSILLEDYRDLNDQFDRIVSVGMFEHVGPKNYNTYFEVVDRNLKPDGLFLLHTIGSKKTDHNVDPWINKYIFPNGCLPSVRQIAEASESHFVMEDWHNFGADYDTTLMAWHERFINAWPEIAGNYNERFKRMFSYYLNACAGAFRARDIQLWQVVFTRGVENGLRVPREGHHHHHH”, the “soluble on expression in E. coli” value was “not soluble”.

On to “MGSDKIHHHHHHMKKTIIISMLLAAGAATYYFTQQTETPKGPRGRPTPNVVVAKAEMQPIRDEVEALGTGKANESITVTPKVTDMVTEINFNDGQMVDKGQLLVRLQDREQIARVTVARVKMKDHERELARISSLVTSQTVAALERDRLQTLIDTAKAELDQAESSLKDRRILAPFSGRLGLRQVSQGSLVTPGTVITTLDDISTIKLDFSVPERFLQSLAIGKSVEASAVAFEGELFTGKVVSVDSRINPTTRAVTVRAEIPNKGMRLLPGMLMKVKLIKQSREALIIPEAAIIPIQKDHFVYLVNDENVVERRQVQLGLRKRGWVEIVGGVDVGEQVMVRGILKVRPGDTVKVQYSEHFSFNQQAKVEPLA”, for which the “soluble on expression in E. coli” value is recorded as “not soluble”. On to “MGSDKIHHHHHHMRFDLIDLRLFLHILETGSITHGAARANMSLPSASARLRGMEDALGMPLLERGRRGVESTPTGDTLAHHARLVLGQIERMQGELGEHQEGRKACIRLWTNTAAITEFLPAAIGLFLRDHPNVQIDLKERQSSETVKAVLSGAAEIGIISDAVEHGALQTFPFAIDKLVLVTSRDDALATCRRTTLAEVADREFIGLSADSALQAYLGERALLAGQPLSFRTHVRTFDAVCCMVDQGAGVGIVPATAAKRYRGTPGIRTIELTDSWATRQLLICMRDLNAMARPEKALVRHLAGI”, for which the “soluble on expression in E. coli” value is reported as “not soluble”. Take “MGLLDMIGPVMVGPSSSHTAGACRLALLARHLLGEKPKRVEFGLHGSFAKTGKGHGTHLALAAGVLGLTPDDERLKESLSLAEREGVEVVFKEVELGDVHPNTVRMVLEGEKERLAVTGSSLGGGLVRVFDVDGFEVRITGSAPTLVIKNVDTPGVVARVARILADDEVNIAYLTVSRKKRGGEAMMSIEVDRPLSEVPLRYLEHLSYILWVRQIPPVMG”: the “soluble on expression in E. coli” value was “soluble”. For “ELIEPEPRPLIITPSVIELPILRRRDIYMEVANVSIGRAADALARHFDVFVQLPLPNVNIFEVSELHMALRDLASHDNVSGVCQGFCGEGIAGEALVILSDSSVSDLKKLMKVPADSEELEELELLMDISNILVGSFLNGLGEQSEVRFFQSPPVLLGQHISIDSIIESTTGAFKRTMTFEVSYNIEGTSIRCDLLFMFVDESLPLLDNKLAYLMEEF”, the “soluble on expression in E. coli” value is listed as “not soluble”. Regarding “SLKTLFEVKQLLKQYGAFIYTRDLDADMQLMQMEMEELHRLGLIERGEFQQAMLVLKREQRAAKMGERAND”, the “soluble on expression in E. coli” value is “soluble”.
